According to publication PMC3991606, “Targeting NAD^+ Metabolism in the Human Malaria Parasite Plasmodium falciparum” (PLoS ONE, 2014):

T1: PfNMNAT (Plasmodium falciparum, UniProt Q8IE38)
T1 construct: gene PF3D7_1327600
T1 sequence (Q8IE38 1-204): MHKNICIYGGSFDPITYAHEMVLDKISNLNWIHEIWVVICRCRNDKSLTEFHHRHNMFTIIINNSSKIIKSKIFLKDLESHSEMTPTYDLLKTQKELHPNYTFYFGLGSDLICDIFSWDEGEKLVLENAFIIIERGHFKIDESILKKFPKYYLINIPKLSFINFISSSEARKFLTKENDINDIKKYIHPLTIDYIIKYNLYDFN

B1: PfNMNAT (Plasmodium falciparum 3D7) (protein)
chain: T1 sequence (Q8IE38 1-204)

Columns and labels:
PfNMNAT = target: T1, PfNMNAT; assay: pyrophosphate release assay, […] nm, […] min preincubation with inhibitor; assay type: biochemical; details: 50 µM 1a-a versus 2% DMSO control
purified protein [1] = substrate: O=C([O-])c1ccc[n+]([C@@H]2O[C@H](COP(=O)(O)O)[C@@H](O)[C@H]2O)c1; assay: purified protein; assay type: biochemical, Plasmodium falciparum; details: 500 µM ATP, 100 mM HEPES, 10 mM MgCl2, pH 7.5, apparent Km
purified protein [2] = substrate: Nc1ncnc2c1ncn2[C@@H]1O[C@H](COP(=O)(O)OP(=O)(O)OP(=O)(O)O)[C@@H](O)[C@H]1O; assay: purified protein; assay type: biochemical, Plasmodium falciparum; details: 500 µM NaMN, 100 mM HEPES, 10 mM MgCl2, pH 7.5, apparent Km

Row | Molecule | inhibition at 50 μM (PfNMNAT) | Km (purified protein [1]) | Km (purified protein [2])
1 | O=C(CCC(=O)Nc1ccc(Br)cc1)N/N=C/c1c2ccccc2cc2ccccc12 [1a-a] | 1a-a exhibits specific activity against purified his-PfNMNAT (Figure 4A) |  | 
2 | B1 |  | 35.8 ± 5.1 µM | 19.9 ± 6.7 µM
